{"source": "patent US20220089699A1", "about": "(AstraZeneca / MedImmune, published 2022)", "biological_target": "T1, biotinylated ClfA001 (Staphylococcus aureus)", "T1 chain": "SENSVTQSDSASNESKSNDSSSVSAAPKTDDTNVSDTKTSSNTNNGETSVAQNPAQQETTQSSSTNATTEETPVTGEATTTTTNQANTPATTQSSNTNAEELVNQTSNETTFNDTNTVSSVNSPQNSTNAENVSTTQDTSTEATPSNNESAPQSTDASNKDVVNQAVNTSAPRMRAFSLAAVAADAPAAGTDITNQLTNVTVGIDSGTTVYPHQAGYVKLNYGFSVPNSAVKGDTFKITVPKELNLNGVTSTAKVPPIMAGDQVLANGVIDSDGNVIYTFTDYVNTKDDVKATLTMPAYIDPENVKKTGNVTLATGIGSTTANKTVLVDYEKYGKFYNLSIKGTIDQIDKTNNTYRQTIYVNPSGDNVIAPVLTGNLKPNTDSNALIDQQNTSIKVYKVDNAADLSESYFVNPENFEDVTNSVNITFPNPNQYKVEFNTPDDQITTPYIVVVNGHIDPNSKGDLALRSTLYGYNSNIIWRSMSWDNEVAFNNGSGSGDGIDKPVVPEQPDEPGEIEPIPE", "experiment": "fibrinogen-binding inhibition ELISA: biotinylated ClfA001 (2 µg/ml) on a fibrinogen-coated plate, antibody titrated"}
{"binder": "SAR114 (antibody, V domains shown, also called anti-ClfA mAb SAR114) VH: QVQLQESGPGLVKPSETLSLTCTVSGGSIQNSYWSWIRQPPGKGLEWIGYLYSSGRTNYTPSLKSRVTISVDTSKNQFSLKLSSVTAADTAVYYCARTHLGGFHYGGGFWFDPWGQGTLVTVSS VL: DIQMTQSPSSLSASVGDRVTITCRASQSITSYLNWYQQKPGKAPKLLIYASSSLQSGVPSRFSGSGSGTDFTLTISSLQPEDFATYYCQESYSTPPTFGQGTKVEIK", "values": [{"measurement": "IC50", "value": 3.02, "unit": "µg/mL"}]}
